Measured values as given in PMC11686214, “Integrative determination of atomic structure of mutant huntingtin exon 1 fibrils implicated in Huntington disease” (Nature Communications, 2024).
Square brackets hold non-standard residues; d marks the D form. Ends that are not written are not given here.

Biological target: the molecule itself
Experiment: solid-state (MAS) NMR of fibrils; synthetic peptide aggregated at 1 mg/mL in PBS pH 7.4 at 37 °C, harvested by centrifugation after 2-3 weeks; 1H-15N HETCOR, 13 kHz MAS, 275 K

B1: K2Q11pGQ11K2 polyQ peptide (peptide)
peptide: KKQQQQQQQQQQQ[dP]GQQQQQQQQQQQKK
modifications: also: two sequential Gln uniformly 13C,15N labelled, positions not given here
notes: written out from the printed formula K2Q11pGQ11K2; p is D-proline; also called polyQ model peptide; source: synthetic peptide (Yale University peptide facility)
B1: binds.
